# From patent US20240317858A1
# Substitutions are numbered along the chain they refer to.
# B1: Antibody No. A002 (ADI-50024) IgG1 (antibody, V domains shown)
# VH: QVQLVQSGAEVKKPGASVKVSCKASGFNIKDYYMHWVRQAPGQRLEWIGWIDLENANTVYDAKFQGRVTITRDTSASTAYMELSSLRSEDTAVYYCARDAYGRYFYDVWGQGTLVTVSS
# VL: DIVMSQSPDSLAVSLGERATINCKSSQSLLNARTGKNYLAWYQQKPGQPPKLLIYWASTRSSGVPDRFSGSGSGTDFTLTISSLQAEDVAVYYCVQSYFRRTFGGGTKVEIK
# B2: Antibody No. V009 (ADI-70326) IgG1 (antibody, V domains shown)
# VH: B1 VH with N28D, D52E, N57D
# VL: B1 VL
# B3: Antibody No. V010 (ADI-70327) IgG1 (antibody, V domains shown)
# VH: B1 VH with N28D, D52E, A56D, N57D
# VL: B1 VL
# B4: Antibody No. V013 (ADI-70330) IgG1 (antibody, V domains shown)
# VH: B1 VH with K30D, Y60D
# VL: B1 VL
# Target: Mouse CD3εδ Fc heterodimer (mouse) (UniProt P22646)
# Assay: BLI (Octet), IgG avidity, pH 7.4
row,Kd [nM],Binder
1,91,B1
2,360,B2
3,510,B3
4,530,B4
